In the supplement of paper PMC10567573:

B1: RTN2 (parent)
chain: SERPLEDLRLRLDHLGWVARGTGS

Variants of: B1
Test: protein stability index of a GFP-peptide fusion (GPS, HEK-293T) (PSI 1-6); higher = more stable
Conditions: c terminus: a fixed tail appended
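Also: lentivirally expressed fusions sorted by FACS into six bins by GFP to DsRed ratio, PSI derived from sequencing read proportions per bin multiplied by bin number.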

Variant	protein stability index
SERPLEDWRLRLDHLGWVARGTGS	1.87
SERPLEDVRLRLDHLGWVARGTGS	1.64
SERPLEDFRLRLDHLGWVARGTGS	1.96
SERPLEDNRLRLDHLGWVARGTGS	2.13
SERPLEDHRLRLDHLGWVARGTGS	2.16
SERPLEDDRLRLDHLGWVARGTGS	2.32
SERPLEDARLRLDHLGWVARGTGS	2.73
SERPLEDIRLRLDHLGWVARGTGS	2.44
SERPLEDQRLRLDHLGWVARGTGS	1.47
SERPLEDLRLRLHHLGWVARGTGS	1.49
SERPLEDLRLRLYHLGWVARGTGS	2.07
SERPLEDLRLRLVHLGWVARGTGS	2.88
SERPLEDLRLRLGHLGWVARGTGS	2.87
SERPLEDLRLRLSHLGWVARGTGS	3.31
SERPLEDLRLRLCHLGWVARGTGS	2.43
SERPLADLRLRLDHLGWVARGTGS	2.27
SERPLMDLRLRLDHLGWVARGTGS	2.29
SERPLGDLRLRLDHLGWVARGTGS	2.35
SERPLQDLRLRLDHLGWVARGTGS	2.49
SERPLIDLRLRLDHLGWVARGTGS	1.71
SERPLDDLRLRLDHLGWVARGTGS	1.68
SERPLHDLRLRLDHLGWVARGTGS	2.34
SERPLKDLRLRLDHLGWVARGTGS	1.53
SERPLTDLRLRLDHLGWVARGTGS	1.29

Variant	protein stability index
SERPLFDLRLRLDHLGWVARGTGS	2.78
SERPLCDLRLRLDHLGWVARGTGS	2.72
SERPLNDLRLRLDHLGWVARGTGS	2.24
SERPLVDLRLRLDHLGWVARGTGS	2.63
SERPLEDLRLRLDHLGWVARGTGT	2.71
SERPLEDLRLRLDHLGWVARGTGH	2.03
SERPLEDLRLRLDHLGWVARGTGE	4.04
SERPLEDLRLRLDHLGWVARGTGD	2.59
SERPLEDLRLRLDHLGWVARGTGM	1.76
SERPLEDLRLRLDHLGWVARGTGW	2.11
SERPLEDLRLRLDHLGWVARGTGV	3.15
SERPLEDLRLRLDHLGWVARGTGN	3.26
SERPLEDLRLRLDHLGWVARGTGY	2.12
SNRPLEDLRLRLDHLGWVARGTGS	1.68
SFRPLEDLRLRLDHLGWVARGTGS	2.9
SIRPLEDLRLRLDHLGWVARGTGS	2.12
SYRPLEDLRLRLDHLGWVARGTGS	2.68
SGRPLEDLRLRLDHLGWVARGTGS	2.28
SLRPLEDLRLRLDHLGWVARGTGS	1.42
SHRPLEDLRLRLDHLGWVARGTGS	2.19
SARPLEDLRLRLDHLGWVARGTGS	1.99
SERPLEDLRLRLDHLGWVARGYGS	2.79
SERPLEDLRLRLDHLGWVARGWGS	3.11
SERPLEDLRLRLDHLGWVARGGGS	2.23

Variant	protein stability index
SERPLEDLRLRLDHLGWVARGLGS	2.11
SERPLEDLRLRLDHLGWVARGNGS	3.95
SERPLEDLRLRLDHLGWVARGRGS	3.6
SERPLEDLRLRLDHLGWVARGCGS	2.75
SERPLEDLRLRLDHLGWVARGFGS	1.3
SERPLEDLRLRLDHLGWVKRGTGS	3.34
SERPLEDLRLRLDHLGWVERGTGS	2.96
SERPLEDLRLRLDHLGWVCRGTGS	2.58
SERPLEDLRLRLDHLGWVTRGTGS	3.5
SERPLEDLRLRLDHLGWVGRGTGS	3.39
SERPLEDLRLRLDHLGWVWRGTGS	2.3
SERPLEDLRLRLDHLGWVDRGTGS	3.31
SERPLEDLRLRLDHLGWVPRGTGS	3.78
SERPLEDLPLRLDHLGWVARGTGS	2.1
SERPLEDLALRLDHLGWVARGTGS	2.34
SERPLEDLYLRLDHLGWVARGTGS	2.26
SERPLEDLNLRLDHLGWVARGTGS	2.84
SERPLEDLTLRLDHLGWVARGTGS	2.27
SERPLEDLELRLDHLGWVARGTGS	2.85
SERPLEDLILRLDHLGWVARGTGS	2.17
SERPLEDLMLRLDHLGWVARGTGS	1.42
SERPLEDLKLRLDHLGWVARGTGS	1.92
SERPLEDLDLRLDHLGWVARGTGS	2.31
SERPLEDLRLRLDILGWVARGTGS	1.99

Variant	protein stability index
SERPLEDLRLRLDQLGWVARGTGS	1.73
SERPLEDLRLRLDTLGWVARGTGS	1.99
SERPLEDLRLRLDELGWVARGTGS	2.61
SERPLEDLRLRLDRLGWVARGTGS	2.36
SERPLEDLRLRLDFLGWVARGTGS	1.51
SERPLERLRLRLDHLGWVARGTGS	1.79
SERPLEHLRLRLDHLGWVARGTGS	1.87
SERPLEMLRLRLDHLGWVARGTGS	1.02
SERPLEVLRLRLDHLGWVARGTGS	1.9
SERPLENLRLRLDHLGWVARGTGS	1.99
SERPLEALRLRLDHLGWVARGTGS	1.94
SERPLEGLRLRLDHLGWVARGTGS	1.96
SERPLEWLRLRLDHLGWVARGTGS	1.29
SERPLEDLRLRPDHLGWVARGTGS	2.47
SERPLEDLRLRADHLGWVARGTGS	2.97
SERPLEDLRLRRDHLGWVARGTGS	2.16
SERPLEDLRLRTDHLGWVARGTGS	3.51
SERPLEDLRLRWDHLGWVARGTGS	2.38
SERPLEDLRLRIDHLGWVARGTGS	2.02
SERPLEDLRLRLDHLPWVARGTGS	2.1
SERPLEDLRLRLDHLYWVARGTGS	2.9
SERPLEDLRLRLDHLVWVARGTGS	1.55
